Laboratory results from patent publication US8574882B2, “Thermostable 1,5-anhydroglucitol dehydrogenase, and method for measurement of 1,5-anhydroglucitol by using the same” (Nippon Kayaku Kabushiki Kaisha, priority 2008, dated 2013).
Where a chain is given by its changes, count along the chain named. Names may count otherwise. Blank lines part the entries; values can stand above or below the molecule they belong to.

Tests used:
[1] = tested on: 1,5-AG dehydrogenase (Ver. 0); assay: Substrate specificity of parent strain-derived 1,5-AG dehydrogenase; type: biochemical, Pseudomonas sp. NK-85001; details: activity for 1,5-AG as 100%; Ver. 0, 40%-saturated ammonium sulfate precipitate fraction
Experimental: (§1) The components other than the crude enzyme solution are mixed and kept at 37° C. for 10 minutes. Then, the crude enzyme solution is added to the reaction solution to initiate reaction. Decrease in absorbance at 600 nm for 1 minute with the temperature kept at 37° C. is determined.
A precipitate fraction of 40%-saturated ammonium sulfate was collected by centrifugation and dissolved in a 50 mM sodium phosphate buffer, pH 7.5.

[2] = 1,5-AG dehydrogenase activity determination of crude enzyme solution (L-sorbose, DCIP, 1-m-PMS, decrease in absorbance at 600 nm); type: biochemical
Experimental: The E. coli JM109 strains transformed with the pTrc-PS15DH vectors confirmed in the paragraph (I) to have the insert fragment were inoculated to 3 mL of an LB medium containing 100 μg/mL ampicillin and cultured at 28° C. for 14 hours. Of this culture solution, a 0.2 mL aliquot was inoculated to 10 mL of an LB medium (containing 100 μg/mL ampicillin). Approximately 3 hours later, the rise of OD600 of the culture solution to 0.4 to 0.7 was confirmed, and 1,5-AG dehydrogenase expression in E. coli was then induced by the addition of 0.1 M IPTG (final concentration: 0.1 mM) to the medium. This culture solution was further cultured overnight at 28° C. and centrifuged at 10000×g for 5 minutes to precipitate cells. The supernatant was removed, and the pellet was then washed twice with a 0.85% aqueous NaCl solution. Cells were precipitated by centrifugation. Then, the microbial cells were suspended in 1 mL of a 50 mM sodium phosphate buffer, pH 7.5. Triton X-100 was added thereto at a concentration of 0.25%, and the microbial cells were disrupted using a bead impact-type cell disrupter MINI-BEAD BEATER (30 seconds×4, manufactured by Central Scientific Commerce, Inc.) while cooled in ice. After centrifugation at 20000×g for 10 minutes, the supernatant was examined as a crude enzyme solution for its 1,5-AG dehydrogenase activity. The composition of the reaction solution is as described below. Since the 1,5-AG dehydrogenase also reacts with L-sorbose as its substrate, L-sorbose was used for convenience instead of 1,5-AG in the enzymatic activity determination.
Composition of Reaction Solution:
as §1
The enzymatic activity can be determined according to the following equation: Enzymatic activity (U/mL)=(Δ600/min×0.6 (mL)×dilution ratio of crude enzyme solution)/(16.3×0.01 (mL)).
(§2) The E. coli JM109 containing the gene encoding each thermostable 1,5-AG dehydrogenase obtained in the paragraphs to [4] of EXAMPLE 2 was transplanted to 10 mL of an LB liquid medium containing 50 μg/mL ampicillin and 0.1 mM IPTG and shake-cultured at 30° C. for 16 hours. 10 mL of the shake-culture solution was centrifuged at 10000 rpm for 5 minutes. The culture supernatant was removed, and the pellet was then washed twice with a 0.85% aqueous NaCl solution. These microbial cells were suspended in 1 mL of a 50 mM sodium phosphate buffer (pH 7.5) containing 0.25% Triton X-100. The microbial cells were disrupted using a bead impact-type cell disrupter MINI-BEAD BEATER (30 seconds×4, manufactured by Central Scientific Commerce, Inc.) while cooled in ice. After centrifugation at 15000 rpm for 10 minutes, the supernatant was used as a crude enzyme solution. When the crude enzyme solution was heat-treated, the treatment was performed for 10 minutes in a water bath of 45° C., 50° C., 55° C. or 60° C.
(§3) The enzymatic activity of the 1,5-AG dehydrogenase was calculated by measurement by the same approach as that described in the paragraph (J) of EXAMPLE 1.
(§4) A specific activity that represents the enzymatic activity of the 1,5-AG dehydrogenase per mg of the crude enzyme solution was calculated according to the following equation: Specific activity (U/mg)=enzymatic activity (U/mL)/protein concentration of crude enzyme solution (mg/mL). Moreover, the rate of residual activity was calculated according to the following equation: Rate of residual activity (%)=(specific activity of crude enzyme solution after heat treatment/specific activity of crude enzyme solution before heat treatment)×100.
The 1,5-AG dehydrogenase activity was determined based on the method described in EXAMPLE 1, and its specific activity was determined according to the equation described in EXAMPLE 3.

[3] = Stability of thermostable 1,5-AG dehydrogenase at heat treatment temperature (rate of residual activity); type: physicochemical; details: crude enzyme solution, water bath 45° C., 10 minutes
Experimental: as §2, §3, §4

[4] = crude enzyme solution, L-sorbose as substrate, 37° C.

Molecule: O=C(CO)[C@@H](O)[C@H](O)[C@@H](O)CO [L-sorbose]
Relative activity [1]: 54%

Relative activity [1]: 0%
Molecule: O=C[C@H](O)[C@@H](O)[C@@H](O)[C@H](O)CO [Galactose]

Relative activity [1]: 0.2%
Molecule: OC[C@H]1O[C@H](O[C@H]2[C@H](O)[C@@H](O)C(O)O[C@@H]2CO)[C@H](O)[C@@H](O)[C@@H]1O (mixture of isomers) [Maltose]

Relative activity [1]: 100%
Molecule: OC[C@H]1OC[C@H](O)[C@@H](O)[C@@H]1O [1,5-AG, 1,5-anhydroglucitol]

Relative activity [1]: 0%
Molecule: OC[C@@H](O)[C@H](O)[C@@H](O)CO [Xylitol]

Relative activity [1]: 0%
Molecule: O=C[C@H](O)[C@@H](O)[C@H](O)CO [Xylose]

B1: Ver. 2.0: thermostable 1,5-AG dehydrogenase, SEQ ID NO: 22; net vs SEQ ID NO: 4: Q6H, A37T, P50Q (protein)
chain: MEFGGHPDIVIIGSGIGGASIAAGLSASGADILILETGESLPDRPENRDQHAIFQRGFFRPKEFWYETDGTPFNPGNYYNVGGNSKFYGAVLVRYRREDFEELAHLEGVSPAWPFAYDELEPWYCKAEELFQVRGELGDDPTEPYHSKPYSYPAIRDESPIADLRARLKKAGLHPASLPLGVDIERWLAKAKTPWDAHPNSNDGKMDAETCPLALALKHPNVGLETSARVTKLETGPDGKTIVAVHYVKNGEALVLRPKLVILSAGAVQSAALLLRSGLANRSDQVGRNFMNHNASAVIGFDPRYRNDSVYQKTFGFNDYYLSDGAGGPPLGNVQLLGRVSGAILKSNMRQVPEWFLNRIAGHTIDFYAMSEDLPSPESRVSVDGDRIILHWVRSNWKAHLMLVDKLKSALRAAGFPVVLSRAFDRRTPSHQCGTVRIGDNPATAPLDPYCRAYDHPNLYVVDASFLPTSAAVNPALTIAAQALRVADHLNREVLA
modifications: Mutated 1,5-anhydroglucitol dehydrogenase gene
Specific activity [2, 4]: 1.4 U/mg
Specific activity ([2]; purification step: CFE (cell-free extracts)): 4.39 U/mg
Specific activity ([2]; purification step: ammonium sulfate precipitation): 13.8 U/mg
Specific activity ([2]; purification step: desalting and concentration): 13.5 U/mg
Specific activity ([2]; purification step: weak anion-exchange chromatography (DEAE FF)): 13.5 U/mg
Rate of residual activity after 10-minute treatment at 45° C. [3]: 31.0%

B2: Ver. 3.0: thermostable 1,5-AG dehydrogenase, protein 19); net vs SEQ ID NO: 4: A37T, P50Q, G362R (protein)
chain: B1 chain with H6Q, G362R
modifications: Pseudomonas sp. NK-85001
Specific activity [2, 4]: 2.8 U/mg
Rate of residual activity after 10-minute treatment at 45° C. [3]: 40.0%

B3: Ver. 3.1: thermostable 1,5-AG dehydrogenase, protein 18); net vs SEQ ID NO: 4: A37T, P50Q, L164M (protein)
chain: B1 chain with H6Q, L164M
modifications: Pseudomonas sp. NK-85001
Specific activity [2, 4]: 1.2 U/mg
Rate of residual activity after 10-minute treatment at 45° C. [3]: 54.0%
